Results: patent US6313088A, “8-[(2-hydroxy-4-methoxy benzoyl) amino]-octanoic acid compositions for delivering active agents” (Emisphere Technologies, Inc., priority 1997, dated 2001)

Parameters: species or system Rats
Conditions: rat, in vivo, 1 mg/kg
Procedure: Rats were administered the dosing composition by intracolonic instillation.

With interferon the “Mean peak serum interferon concentration” value was 79±100.
